What is called Kd is the free concentration of one partner at which half of the binding sites on the other are occupied at equilibrium, for simple one-to-one binding. Higher therefore signals weaker binding.

From PMC10977697 (PLOS ONE, 2024) come the findings set out here.

T1: Notch2Long (Notch2 EGF6-EGF12) (human, UniProt Q04721 219-418, biotin via the N-terminal Avi tag (enzymatic biotinylation))
T1 construct: also called N2L protein; hNotch2; not shown: Avi tag, N-terminal, kept
T1 sequence (looked up): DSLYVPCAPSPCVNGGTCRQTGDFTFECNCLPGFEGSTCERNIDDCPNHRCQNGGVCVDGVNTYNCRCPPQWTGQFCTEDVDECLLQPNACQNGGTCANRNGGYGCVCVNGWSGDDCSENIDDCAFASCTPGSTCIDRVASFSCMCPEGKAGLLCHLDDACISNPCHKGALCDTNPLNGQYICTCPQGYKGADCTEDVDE

T2: Notch2Long (Notch2 EGF6-EGF12) (human, UniProt Q04721 219-418, biotin on the N-terminal Avi tag (enzymatic))
T2 construct: also called N2L protein; hNotch2; not shown: Avi tag, N-terminal, kept
T2 sequence (looked up): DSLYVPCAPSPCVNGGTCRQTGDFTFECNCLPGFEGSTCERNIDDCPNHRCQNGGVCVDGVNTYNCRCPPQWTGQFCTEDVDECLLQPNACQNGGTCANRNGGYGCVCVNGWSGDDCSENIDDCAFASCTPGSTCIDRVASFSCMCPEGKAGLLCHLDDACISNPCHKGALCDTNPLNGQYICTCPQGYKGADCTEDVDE

T3: Notch2NRR (Notch2 NRR domain) (human, UniProt Q04721 1423-1677, biotin on the N-terminal Avi tag (enzymatic))
T3 construct: also called NRR protein; not shown: Avi tag, N-terminal, kept
T3 sequence (looked up): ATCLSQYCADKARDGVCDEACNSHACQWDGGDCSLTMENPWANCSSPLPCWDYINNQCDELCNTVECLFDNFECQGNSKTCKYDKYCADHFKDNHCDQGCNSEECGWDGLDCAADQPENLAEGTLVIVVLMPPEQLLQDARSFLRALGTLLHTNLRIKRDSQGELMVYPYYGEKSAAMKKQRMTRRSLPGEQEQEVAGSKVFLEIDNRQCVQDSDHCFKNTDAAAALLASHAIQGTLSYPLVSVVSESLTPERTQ

The first experiment concerns the target T1, Notch2Long (Notch2 EGF6-EGF12). Kind of experiment: SPR. The note with it: both partners purified.
On to GCGWTLRHCKQDSDCLAGCVCEPKWWCG (designed binder) [N2L.EET03.63], for which the Kd stood at 44.8 µM. The same measure, in the same setting: in the case of GCGWTLRHCKQDSDCLAGCVCEPIWWCG (designed binder) [N2L.EET03.18] it was 8.9 µM. For the molecule GCGWTLKHCKQDSDCLAGCVCEPIWWCG (designed binder) [N2L.EET03.30], the Kd amounted to 13.1 µM.

The next experiment has as its target T2, Notch2Long (Notch2 EGF6-EGF12). Nature of the experiment: ELISA. Conditions: one partner purified. (ELISA stands for enzyme-linked immunosorbent assay.)
As to GCIKSHLWCPRHEKCLAGCVCEVWIRCG (designed binder) [N2L.EET31.32.29 displayed on M13 phage (p3)], the ELISA turned out to be 2 and the “s/n Ratio” value was determined as 9.3. As to GCGWTLRHCKQDSDCLAGCVCRPIWYCG (designed binder) [N2L.EET03.10 displayed on M13 phage], the ELISA worked out at 3 and the “s/n Ratio” value worked out at 48.4. For GCIKSHLWCPPSDYCLAGCVCEVWIQCG (designed binder) [N2L.EET31.32.21 displayed on M13 phage (p3)], the ELISA was 1.8 and the “s/n Ratio” value worked out at 9.1.

On to GCIKSHLWCHPKLDCEAGCICEVWIQCG (designed binder) [N2L.EET31.43.18 displayed on M13 phage (p3)], for which the ELISA was found to be 2.1 and the “s/n Ratio” value was 10.2. Regarding GCIKSHLWCPPPRRCEAGCICEVWIQCG (designed binder) [N2L.EET31.43.35 displayed on M13 phage (p3)], the ELISA came out at 2.1 and the “s/n Ratio” value came to 11.6. In the same order, the values of GCIRSHLWCPPSASCLAGCVCEVWIQCG (designed binder) [N2L.EET31.32.70 displayed on M13 phage (p3)] are 1.9 and 7.3. With GCIRSHVWCKQDSDCEAGCICEIWIQCG (designed binder) [N2L.EET31.43.43 displayed on M13 phage (p3)], the ELISA was determined as 2 and the “s/n Ratio” value was 10.2. As for GCIKSHLWCPRDSDCLAGCVCEVWIQCG (designed binder) [N2L.EET31.32.13 displayed on M13 phage (p3)], the ELISA was determined as 2.2 and the “s/n Ratio” value was determined as 10.2. Taken in the same sequence, the figures for GCVRSHVWCPSDERCLAGCVCEIWIRCG (designed binder) [N2L.EET31.32.85 displayed on M13 phage (p3)] were 2 and 4.3. For the molecule GCIKSHLWCKQDSDCEAGCICEVWIQCG (designed binder, also called N2L.31.L34.43) [N2L.EET31.43 displayed on M13 phage (p3)], the ELISA worked out at 0.7 and the “s/n Ratio” value turned out to be 5.1. As for GCIKSHLWCPHGGRCEAGCICEVWIQCG (designed binder) [N2L.EET31.43.30 displayed on M13 phage (p3)], the ELISA is 2.2 and the “s/n Ratio” value turned out to be 10.7.

Regarding GCIKSHLWCPGKERCLAGCICEIWIQCG (designed binder) [N2L.EET31.32.48 displayed on M13 phage (p3)], the ELISA came to 1.9 and the “s/n Ratio” value was found to be 7.2. Taken in the same sequence, the figures for GCIKSHLWCDPRKDCEAGCICEVWIQCG (designed binder) [N2L.EET31.43.75 displayed on M13 phage (p3)] were 2.1 and 10.3. Take GCVRSHLWCKQDSDCEAGCICEVWIKCG (designed binder) [N2L.EET31.43.73 displayed on M13 phage (p3)]: the ELISA was determined as 2.3 and the “s/n Ratio” value worked out at 11. Take GCIRSQLWCPSDERCLAGCVCEVWIKCG (designed binder) [N2L.EET31.32.80 displayed on M13 phage (p3)]: the ELISA worked out at 2.1 and the “s/n Ratio” value came to 7.6. Consider GCIKSHLWCPSDERCLAGCVCEVWIQCG (designed binder, also called N2L.31.L2.32) [N2L.EET31.32 displayed on M13 phage (p3)], for which the ELISA came to 0.5 and the “s/n Ratio” value is 3.7. Take GCIKSHLWCPKTSDCEAGCICEVWIQCG (designed binder) [N2L.EET31.43.24 displayed on M13 phage (p3)]: the ELISA was determined as 2.1 and the “s/n Ratio” value came to 10.5. Turning to GCIRSHVWCKQDSDCEAGCICEVWVKCG (designed binder) [N2L.EET31.43.64 displayed on M13 phage (p3)], the ELISA is 2 and the “s/n Ratio” value was found to be 8.8. Taken in the same sequence, the figures for GCIKSHLWCDPRVSCEAGCICEVWIQCG (designed binder) [N2L.EET31.43.78 displayed on M13 phage (p3)] were 1.9 and 10.3. On to GCIKSHLWCDPRKSCEAGCICEVWIQCG (designed binder) [N2L.EET31.43.88 displayed on M13 phage (p3)], for which the ELISA came to 1.9 and the “s/n Ratio” value stood at 10.2. On to GCIKSHLWCPRAEKCLAGCICEVWIQCG (designed binder) [N2L.EET31.32.33 displayed on M13 phage (p3)], for which the ELISA is 1.9 and the “s/n Ratio” value was 9.3.

Another experiment concerns the target T3, Notch2NRR (Notch2 NRR domain). Nature of the experiment: ELISA. The note with it: one partner purified.
As for GCMPRYGGWHCKQDSDCLAGCVCGPNGFCG (designed binder) [N2N-EET-63 displayed on M13 phage], the ELISA amounted to 1.5 and the s/n Ratio is 21.3. In the same order, the values of GCRPRFKGWTCKQDSDCLAGCVCGPNGFCG (designed binder) [N2N-EET-n3 displayed on M13 phage] are 2.1 and 33.1.

As to GCRPRWGGWHCKQDSDCLAGCVCGPNGFCG (designed binder) [N2N-EET-57 displayed on M13 phage], the ELISA worked out at 3.8 and the s/n Ratio was 30.9. As for GCQQRRWGGWQQCKQDSDCLAGCVCGPNGFCG (designed binder) [N2N-EET-33 displayed on M13 phage], the ELISA was found to be 3.6 and the s/n Ratio was 28.9.

Consider GCGQKRMGGWQWCKQDSDCLAGCVCGPNGFCG (designed binder) [N2N-EET-n13 displayed on M13 phage], for which the ELISA was 3.4 and the s/n Ratio worked out at 53.9. With GCGQQRWGGWPLCKQDSDCLAGCVCGPNGFCG (designed binder) [N2N-EET-45 displayed on M13 phage], the ELISA is 3.5 and the s/n Ratio turned out to be 14.9.

For the next experiment, the target named is T4, HtrA1 (human, UniProt Q92743 23-480, biotin on lysines (Sulfo-NHS-LC-biotin) for panning and SPR).
T4 construct: also called HtrA1 FL; human full-length HtrA1
T4 sequence (Q92743 23-480): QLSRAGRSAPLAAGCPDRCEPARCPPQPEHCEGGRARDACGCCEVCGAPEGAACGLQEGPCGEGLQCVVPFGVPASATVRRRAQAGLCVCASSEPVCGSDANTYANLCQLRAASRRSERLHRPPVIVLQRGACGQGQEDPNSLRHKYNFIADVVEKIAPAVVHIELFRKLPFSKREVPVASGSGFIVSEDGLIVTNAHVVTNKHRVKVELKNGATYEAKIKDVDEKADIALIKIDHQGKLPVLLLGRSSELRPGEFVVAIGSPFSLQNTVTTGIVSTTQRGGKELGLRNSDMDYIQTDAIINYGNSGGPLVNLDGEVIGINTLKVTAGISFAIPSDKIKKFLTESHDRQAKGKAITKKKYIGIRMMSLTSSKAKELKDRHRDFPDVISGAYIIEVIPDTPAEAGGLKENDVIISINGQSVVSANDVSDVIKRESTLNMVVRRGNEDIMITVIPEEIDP
Nature of the experiment: ELISA. The note with it: one partner purified.
Turning to ACKGVFDACTWKNWRQSRSRECCPNAVCSDKHKWCKWKL (designed binder, Huwentoxin scaffold) [HtrA1_HwTx69 displayed on M13 phage], the ELISA stood at 0.9 and the s/n Ratio was found to be 9.6.

For ECKGKGAKCSIQWSVYPWKVCCTGSCRSGKC (designed binder, Conotoxin-MVIIA scaffold) [HtrA1_CnTx83 displayed on M13 phage], the ELISA was 1.1 and the s/n Ratio came out at 16.1. On to WIPCISAALGCSCKNKVCYFLYQICGESCV (designed binder) [HtrA1_CirA38 displayed on M13 phage], for which the ELISA was determined as 2.1 and the s/n Ratio was determined as 31.9.

As to GCHRPWWQLWGLCKQDSDCLAGCVCGPNGFCG (designed binder) [HtrA1_EET76 displayed on M13 phage], the ELISA was determined as 1 and the s/n Ratio worked out at 13.7. In the same order, the values of WIPCISAALGCSCKNKVCYIFSKHLCGESCV (designed binder) [HtrA1_CirA65 displayed on M13 phage] are 2.2 and 33.9.
